Results: article PMC7692894

Legend:
[1] = target: milk-derived short digestion-resistant peptides with the mass <3 kDa; experiment: SEC; milk peptide fraction <3 kDa (MP) run beside pepsin autoproteolysis peptides (PP); physiologically relevant conditions; area under the curve at 215 nm; details in Supplementary Information
[2] = as above

stoichiometry N [1]: > 4
Substance: milk-derived short digestion-resistant peptides with the mass <3 kDa
percent of the peptides aggregated [2]: 43.5% of the peptides aggregated into larger complexes
